Data from patent publication EP4534554A1 (Corregene Biotechnology Co., Ltd., dated 2025).

T1: MAGE-A1 peptide on HLA-A*02:01 (human)
T1 peptide: KVLEYVIKV


Legend:
[1] = biological target: MAGE-A1 target antigen peptide … presented by HLA-A*02:01 on cells (human); assay: cell-based or functional assay; set-up: EC50 Enhancement Factor: unit not given beside the values
[2] = biological target: T1, MAGE-A1 peptide on HLA-A*02:01; assay: JKR9 reporter + peptide-loaded T2, 16 h; full-length, on cells

Row | Binder | EC50 Enhancement Factor [1] | EC50 Value (M), JKR9 reporter activation by peptide-loaded T2 cells [1] [M] | EC50 of peptide [2] [nM]
1 | ht27M1004 (TCR, V domains shown) Valpha: GEDVEQSLFLSVREGDSSVINCTYTDSSSTYLYWYKQEPGAGLQLLTYIFSNMDMKQDQRLTVLLNKKDKHLSLRIADTQTGDSAIYFCAGSGGGTDKLIFGTGTRLQVFP Vbeta: GAVVSQHPSWVICKSGTSVKIECRSLDFQATTMFWYRQFPKQSLMLMATSNEGSKATYEQGVEKDKFLINHASLTLSTLTVTSAHPEDSSFYICSAREPGQGPFEQYFGPGTRLTVT | 944 | 1.76e-08 | 17.6
2 | ht27M1006 (TCR, V domains shown) Valpha: GEDVEQSLFLSVREGDSSVINCTYTDSSSTYLYWYKQEPGAGLQLLTYIFSNMDMKQDQRLTVLLNKKDKHLSLRIADTQTGDSAIYFCAGSGGGTDKLIFGTGTRLQVFP Vbeta: GAVVSQHPSWVICKSGTSVKIECRSLDFQATTMFWYRQFPKQSLMLMATSNEGSKATYEQGVEKDKFLINHASLTLSTLTVTSAHPEDSSFYICSAREPGQGPWEQYFGPGTRLTVT | 445 | 3.74e-08 | 37.4
3 | ht27M1009 (TCR, V domains shown) Valpha: GEDVEQSLFLSVREGDSSVINCTYTDSSSTYLYWYKQEPGAGLQLLTYIFSNMDMKQDQRLTVLLNKKDKHLSLRIADTQTGDSAIYFCAGSGGGTDKLIFGTGTRLQVFP Vbeta: GAVVSQHPSWVICKSGTSVKIECRSLDFQATTMFWYRQFPKQSLMLMATSDYQTCVTYEQGVEKDKFLINHASLTLSTLTVTSAHPEDSSFYICSAREPGQGPFEQYFGPGTRLTVT | 2720 | 6.12e-09 | 6.12
4 | ht27M1011 (TCR, V domains shown) Valpha: GEDVEQSLFLSVREGDSSVINCTYTDSSSTYLYWYKQEPGAGLQLLTYIFSNMDMKQDQRLTVLLNKKDKHLSLRIADTQTGDSAIYFCAGSGGGTDKLIFGTGTRLQVFP Vbeta: GAVVSQHPSWVICKSGTSVKIECRSLDFQATTMFWYRQFPKQSLMLMATSDYQTCVTYEQGVEKDKFLINHASLTLSTLTVTSAHPEDSSFYICSAREPGQGPWEQYFGPGTRLTVT | 2020 | 8.24e-09 | 8.24
5 | ht27M1010 (TCR, V domains shown) Valpha: GEDVEQSLFLSVREGDSSVINCTYTDSSSTYLYWYKQEPGAGLQLLTYIFSNMDMKQDQRLTVLLNKKDKHLSLRIADTQTGDSAIYFCAGSGGGTDKLIFGTGTRLQVFP Vbeta: GAVVSQHPSWVICKSGTSVKIECRSLDFQATTMFWYRQFPKQSLMLMATSDYQTCVTYEQGVEKDKFLINHASLTLSTLTVTSAHPEDSSFYICSAREPGQGPLEQYFGPGTRLTVT | 820 | 2.03e-08 | 20.3
6 | ht27M1005 (TCR, V domains shown) Valpha: GEDVEQSLFLSVREGDSSVINCTYTDSSSTYLYWYKQEPGAGLQLLTYIFSNMDMKQDQRLTVLLNKKDKHLSLRIADTQTGDSAIYFCAGSGGGTDKLIFGTGTRLQVFP Vbeta: GAVVSQHPSWVICKSGTSVKIECRSLDFQATTMFWYRQFPKQSLMLMATSNEGSKATYEQGVEKDKFLINHASLTLSTLTVTSAHPEDSSFYICSAREPGQGPLEQYFGPGTRLTVT | 11 | 1.55e-06 | 1550
7 | ht27M1012 (TCR, V domains shown) Valpha: GEDVEQSLFLSVREGDSSVINCTYTDSSSTYLYWYKQEPGAGLQLLTYIFSNMDMKQDQRLTVLLNKKDKHLSLRIADTQTGDSAIYFCAGSGGGTDKLIFGTGTRLQVFP Vbeta: GAVVSQHPSWVICKSGTSVKIECRSLDFQATTMFWYRQFPKQSLMLMATSNEGSKATYEQGVEKDKFLINHASLTLSTLTVTSAHPEDSSFYICSAREPGGGPFEQYFGPGTRLTVT | 637 | 2.61e-08 | 26.1
